Assay results as given in patent US11723913.

Molecular target: murine protein S (mouse) (UniProt Q08761)
Test: cell-based or functional assay

Chain of UniProt Q08761 (Q08761 42-675 limits assumed): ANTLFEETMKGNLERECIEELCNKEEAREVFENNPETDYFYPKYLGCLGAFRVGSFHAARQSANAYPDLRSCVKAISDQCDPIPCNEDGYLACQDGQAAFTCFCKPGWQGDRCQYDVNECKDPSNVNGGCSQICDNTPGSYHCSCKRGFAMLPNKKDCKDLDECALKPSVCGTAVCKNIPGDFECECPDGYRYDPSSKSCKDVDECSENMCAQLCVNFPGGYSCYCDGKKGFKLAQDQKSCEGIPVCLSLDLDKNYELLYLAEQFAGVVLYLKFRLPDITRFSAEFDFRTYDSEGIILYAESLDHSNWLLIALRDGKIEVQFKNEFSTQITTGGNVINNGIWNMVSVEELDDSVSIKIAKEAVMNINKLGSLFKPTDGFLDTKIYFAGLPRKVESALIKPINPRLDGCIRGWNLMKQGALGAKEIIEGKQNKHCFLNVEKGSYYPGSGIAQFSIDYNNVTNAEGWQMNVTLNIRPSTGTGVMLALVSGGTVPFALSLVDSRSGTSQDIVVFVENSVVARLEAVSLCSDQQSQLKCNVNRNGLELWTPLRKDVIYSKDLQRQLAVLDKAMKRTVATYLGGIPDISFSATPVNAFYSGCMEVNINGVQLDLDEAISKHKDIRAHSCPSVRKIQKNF

Row | reduction of ETP in Ca2+ ionophore-activated PRP of WT mice at 8 nM APC [%] | Substance
1 | 90 | wild type recombinant mouse APC (wt-rmAPC) (from UniProt P33587 42-460)
2 | 30 | mutated recombinant mouse APC (rmAPC L38D) (from UniProt P33587 42-460)
